According to US11906524B2, “Urea biosensors and uses thereof” (Duke University, priority 2015, dated 2024):
Changes are numbered by the printed parent chain. In names and notes the source's numbering stands.

How the values were obtained:
[1] = Urea titration of emission intensity spectra (Nanodrop3300) with ratiometric analysis, singly labeled conjugates; assay type: binding
Description: Determination of emission intensity spectra.
(§1) Ratiometric analysis of urea binding. […] 2
(§2) For a single urea-binding site, the fractional saturation is given by
(§3) [formula] where [L] is the ligand (urea) concentration and Kd the dissociation constant, ^trueKd for ytrue.
[formula] where ^appIλ2 and ^satIλ2 are the emission intensities of the monochromatic signal at wavelength λ2 of the ligand-free and ligand-bound protein, respectively.

[2] = Temperature- and urea-dependent fluorescence landscapes of fluorescent conjugates (Roche LightCycler); assay type: binding; parameters: key: y, yes; n, no; details: fluorescent response to urea
Protocol: We constructed 20 single cysteine mutants in csUBP7, exploring 7 endosteric, 12 peristeric, and 1 allosteric position (FIG. 9). At each position we attached the Prodan-derived fluorophores Acrylodan and Badan, which differ by one methylene group in their thiol-reactive linker. The fluorescent responses of these conjugates was determined initially as a function of urea concentration and temperature (FIG. 10). […] The ligand dependence of the emission spectra shapes was determined for these conjugates (Table 8).
Determination of temperature- and ligand-dependent fluorescence landscapes. […] Urea concentrations were varied from 0-4.8 M in 20 mM KCl, 20 mM MOPS (pH 7.4). […] Temperatures were advanced in 1K steps.
as §1, §2, §3
To obtain the temperature dependence of the binding reaction, the Kd values of all the individually determined isotherms were fit the Gibbs-Hemholtz equation (Layton and Hellinga, 2010, Biochemistry, 49, 10831-41):
[formula] where ΔGb^•(T) is the standard free energy of binding at 1 M ligand at temperature T,
[formula] Δ^refHb^• and Δ^refSb^• the molar enthalpy and entropy of binding, respectively, at the reference temperature, Tref, and ΔCp,b the heat capacity of the binding reaction.

[3] = mutation in the csUBP7 186C·Acrylodan conjugate

**Q.** Which monochromatic intensity change ([1]; fluorophore conjugated to csUBP7 186C variant with Q114A, increase on urea) does the source give for Oregon Green here?
**A.** ~2 fold

**Q.** What about the Kd ([1]; fluorophore conjugated to csUBP7 186C, Q114A, fit of equation 1 to the monochromatic emission intensities, Nanodrop3300, read-out: trueKd (urea)) of the same molecule?
**A.** 300 µM

**Q.** Which “trueKd (urea)” value ([1]; fluorophore conjugated to csUBP7 186C, Q114A, fit of equation 1 to the monochromatic emission intensities, Nanodrop3300) does the source give for Texas Red here?
**A.** n/b

B1: N211A: csUBP7 186C, 211A mutant (SEQ ID NO: 82), tested as Acrylodan conjugate (conjugate)
chain: MSSSESEKEKSEETIKVGILHSLSGTMSISEVSLKDAELMAIEEINNNGGVLGKKLEPIVEDGASDWPTFAEKAKKLLQKDKVAVIFGAWTSASRKAVLPVVEENNGLLFYPVQYEGLESSPNIFYMGAAPNQQIVPAVKWLFDNGKKRFYLLGSDYVFPRTANKIIKAYLKYLGGVVVGEEYTPCGHTDYSSVINKIKAAKPDVVFNTLAGDSNVAFFKQLKDAGIDANTLPVMSVSIAEEEIKGIGPEYLKGHLVTWNYFQSVDTPENKEFVEKYKKKYGEDRVTDDPIEAAYIGVYLWAKAVEKAGSTDVDKVREAAKGIEFNAPEGPVKIDGDNQHLYKTVRIGEILENGQIRELWKTNKPVKPDPYLKGYEWAQGLSEQGGSHHHHHH
modifications: Acrylodan conjugate; csUBP7_186C.28 (186C, 211A substitution mutant, signal peptide replaced with M and a GGSHHHHHH at C-terminus, and also comprising a C89A substitution)
**Q.** For B1, which “effect of mutation on urea affinity” value [1, 3] is on record?
**A.** nearly abolishes binding

B2: Q114E: csUBP7 186C, 114E mutant (SEQ ID NO: 76), tested as Acrylodan conjugate (conjugate)
chain: B1 chain with Q114E, A211N
modifications: Acrylodan conjugate; csUBP7_186C.22 (186C, 114E substitution mutant, signal peptide replaced with M and a GGSHHHHHH at C-terminus, and also comprising a C89A substitution)
**Q.** For B2, which “effect of mutation on urea affinity” value [1, 3] is on record?
**A.** improves binding by an order of magnitude

B3: csUBP7 Y111C: csUBP7 111C cysteine mutant (SEQ ID NO: 33), tested as Acrylodan and Badan conjugates (conjugate)
chain: B1 chain with Y111C, C186L, A211N
modifications: Acrylodan or Badan conjugate; csUBP7_111C (111C substitution mutant with signal peptide replaced with M and a GGSHHHHHH at C-terminus, and also comprising a C89A substitution)
**Q.** Which Response ([2]; Acrylodan conjugate) does the source give for B3 here?
**A.** n

**Q.** And the Response ([2]; Badan conjugate)?
**A.** n

B4: csUBP7 Q114C: csUBP7 114C cysteine mutant (SEQ ID NO: 34), tested as Acrylodan and Badan conjugates (conjugate)
chain: B1 chain with Q114C, C186L, A211N
modifications: Acrylodan or Badan conjugate; csUBP7_114C (114C substitution mutant with signal peptide replaced with M and a GGSHHHHHH at C-terminus, and also comprising a C89A substitution)
**Q.** What does the source list for B4?
**A.** Response ([2]; Acrylodan conjugate): n; Response ([2]; Badan conjugate): n

B5: csUBP7 S92C: csUBP7 92C cysteine mutant (SEQ ID NO: 30), tested as Acrylodan and Badan conjugates (conjugate)
chain: B1 chain with S92C, C186L, A211N
modifications: Acrylodan or Badan conjugate; csUBP7_92C (92C substitution mutant with signal peptide replaced with M and a GGSHHHHHH at C-terminus, and also comprising a C89A substitution)
**Q.** For B5, which Response ([2]; Acrylodan conjugate) is on record?
**A.** n

**Q.** What about the Response ([2]; Badan conjugate) of the same molecule?
**A.** n

B6: S92A: csUBP7 186C, S92A mutant (SEQ ID NO: 65), tested as Acrylodan conjugate (conjugate)
chain: B1 chain with S92A, A211N
modifications: Acrylodan conjugate; csUBP7_186C.11 (186C, S92A substitution mutant, signal peptide replaced with M and a GGSHHHHHH at C-terminus, and also comprising a C89A substitution)
**Q.** For B6, which “effect of mutation on urea affinity” value [1, 3] is on record?
**A.** abolishes binding

B7: V113T: csUBP7 186C, 113T mutant (SEQ ID NO: 70), tested as Acrylodan conjugate (conjugate)
chain: B1 chain with V113T, A211N
modifications: Acrylodan conjugate; csUBP7_186C.16 (186C, 113T substitution mutant, signal peptide replaced with M and a GGSHHHHHH at C-terminus, and also comprising a C89A substitution)
**Q.** Which “effect of mutation on urea affinity” value [1, 3] does the source give for B7 here?
**A.** only a small effect

B8: N211E: csUBP7 186C, 211E mutant (SEQ ID NO: 86), tested as Acrylodan conjugate (conjugate)
chain: B1 chain with A211E
modifications: Acrylodan conjugate; csUBP7_186C.32 (186C, 211E substitution mutant, signal peptide replaced with M and a GGSHHHHHH at C-terminus, and also comprising a C89A substitution)
**Q.** For B8, which “effect of mutation on urea affinity” value [1, 3] is on record?
**A.** weakens affinity

B9: V113Q: csUBP7 186C, 113Q mutant (SEQ ID NO: 72), tested as Acrylodan conjugate (conjugate)
chain: B1 chain with V113Q, A211N
modifications: Acrylodan conjugate; csUBP7_186C.18 (186C, 113Q substitution mutant, signal peptide replaced with M and a GGSHHHHHH at C-terminus, and also comprising a C89A substitution)
**Q.** For B9, which “fold stronger affinity than either V113N or V113H” value [1, 3] is on record?
**A.** 10 fold

B10: csUBP7 Y115C: csUBP7 115C cysteine mutant (SEQ ID NO: 35), tested as Acrylodan and Badan conjugates (conjugate)
chain: B1 chain with Y115C, C186L, A211N
modifications: Acrylodan or Badan conjugate; csUBP7_115C (115C substitution mutant with signal peptide replaced with M and a GGSHHHHHH at C-terminus, and also comprising a C89A substitution)
**Q.** With B10 as the molecule, how does the Response ([2]; Acrylodan conjugate) read?
**A.** n

**Q.** What about the Response ([2]; Badan conjugate) of the same molecule?
**A.** n

B11: csUBP7 A93C: csUBP7 93C cysteine mutant (SEQ ID NO: 31), tested as Acrylodan and Badan conjugates (conjugate)
chain: B1 chain with A93C, C186L, A211N
modifications: Acrylodan or Badan conjugate; csUBP7_93C (93C substitution mutant with signal peptide replaced with M and a GGSHHHHHH at C-terminus, and also comprising a C89A substitution)
**Q.** What does the source list for B11?
**A.** Response ([2]; Acrylodan conjugate): y; Response ([2]; Badan conjugate): n

B12: V113A: csUBP7 186C, 113A mutant (SEQ ID NO: 69), tested as Acrylodan conjugate (conjugate)
chain: B1 chain with V113A, A211N
modifications: Acrylodan conjugate; csUBP7_186C.15 (186C, 113A substitution mutant, signal peptide replaced with M and a GGSHHHHHH at C-terminus, and also comprising a C89A substitution)
**Q.** Which “effect of mutation on urea affinity” value [1, 3] does the source give for B12 here?
**A.** weakens binding significantly

B13: csUBP7 S65C: csUBP7 65C cysteine mutant (SEQ ID NO: 26), tested as Acrylodan and Badan conjugates (conjugate)
chain: B1 chain with S65C, C186L, A211N
modifications: Acrylodan or Badan conjugate; csUBP7_65C (65C substitution mutant with signal peptide replaced with M and a GGSHHHHHH at C-terminus, and also comprising a C89A substitution)
**Q.** For B13, which Response ([2]; Acrylodan conjugate) is on record?
**A.** n

**Q.** What about the Response ([2]; Badan conjugate) of the same molecule?
**A.** y
